# In patent US20200262877A1, “ION CHANNEL-BINDING PEPTIDES AND METHODS OF USE THEREOF” (priority 2017, published 2020):
# Legend:
# Nav1.7 = target: T1, Nav1.7 (Homo sapiens, UniProt Q15858); test: cell-based; format: cell-based; conditions: 100% = no change; for Activity of Nav1.7 with peptide, expressed as a percentage of the reference compound: peptide at 0.2 μM; for Activity of Nav1.7 with peptide (percentage of the reference compound): peptide at 20 μM
# T1 construct: host or cells: HEK293 or CHO
# T1 sequence (Q15858 whole entry): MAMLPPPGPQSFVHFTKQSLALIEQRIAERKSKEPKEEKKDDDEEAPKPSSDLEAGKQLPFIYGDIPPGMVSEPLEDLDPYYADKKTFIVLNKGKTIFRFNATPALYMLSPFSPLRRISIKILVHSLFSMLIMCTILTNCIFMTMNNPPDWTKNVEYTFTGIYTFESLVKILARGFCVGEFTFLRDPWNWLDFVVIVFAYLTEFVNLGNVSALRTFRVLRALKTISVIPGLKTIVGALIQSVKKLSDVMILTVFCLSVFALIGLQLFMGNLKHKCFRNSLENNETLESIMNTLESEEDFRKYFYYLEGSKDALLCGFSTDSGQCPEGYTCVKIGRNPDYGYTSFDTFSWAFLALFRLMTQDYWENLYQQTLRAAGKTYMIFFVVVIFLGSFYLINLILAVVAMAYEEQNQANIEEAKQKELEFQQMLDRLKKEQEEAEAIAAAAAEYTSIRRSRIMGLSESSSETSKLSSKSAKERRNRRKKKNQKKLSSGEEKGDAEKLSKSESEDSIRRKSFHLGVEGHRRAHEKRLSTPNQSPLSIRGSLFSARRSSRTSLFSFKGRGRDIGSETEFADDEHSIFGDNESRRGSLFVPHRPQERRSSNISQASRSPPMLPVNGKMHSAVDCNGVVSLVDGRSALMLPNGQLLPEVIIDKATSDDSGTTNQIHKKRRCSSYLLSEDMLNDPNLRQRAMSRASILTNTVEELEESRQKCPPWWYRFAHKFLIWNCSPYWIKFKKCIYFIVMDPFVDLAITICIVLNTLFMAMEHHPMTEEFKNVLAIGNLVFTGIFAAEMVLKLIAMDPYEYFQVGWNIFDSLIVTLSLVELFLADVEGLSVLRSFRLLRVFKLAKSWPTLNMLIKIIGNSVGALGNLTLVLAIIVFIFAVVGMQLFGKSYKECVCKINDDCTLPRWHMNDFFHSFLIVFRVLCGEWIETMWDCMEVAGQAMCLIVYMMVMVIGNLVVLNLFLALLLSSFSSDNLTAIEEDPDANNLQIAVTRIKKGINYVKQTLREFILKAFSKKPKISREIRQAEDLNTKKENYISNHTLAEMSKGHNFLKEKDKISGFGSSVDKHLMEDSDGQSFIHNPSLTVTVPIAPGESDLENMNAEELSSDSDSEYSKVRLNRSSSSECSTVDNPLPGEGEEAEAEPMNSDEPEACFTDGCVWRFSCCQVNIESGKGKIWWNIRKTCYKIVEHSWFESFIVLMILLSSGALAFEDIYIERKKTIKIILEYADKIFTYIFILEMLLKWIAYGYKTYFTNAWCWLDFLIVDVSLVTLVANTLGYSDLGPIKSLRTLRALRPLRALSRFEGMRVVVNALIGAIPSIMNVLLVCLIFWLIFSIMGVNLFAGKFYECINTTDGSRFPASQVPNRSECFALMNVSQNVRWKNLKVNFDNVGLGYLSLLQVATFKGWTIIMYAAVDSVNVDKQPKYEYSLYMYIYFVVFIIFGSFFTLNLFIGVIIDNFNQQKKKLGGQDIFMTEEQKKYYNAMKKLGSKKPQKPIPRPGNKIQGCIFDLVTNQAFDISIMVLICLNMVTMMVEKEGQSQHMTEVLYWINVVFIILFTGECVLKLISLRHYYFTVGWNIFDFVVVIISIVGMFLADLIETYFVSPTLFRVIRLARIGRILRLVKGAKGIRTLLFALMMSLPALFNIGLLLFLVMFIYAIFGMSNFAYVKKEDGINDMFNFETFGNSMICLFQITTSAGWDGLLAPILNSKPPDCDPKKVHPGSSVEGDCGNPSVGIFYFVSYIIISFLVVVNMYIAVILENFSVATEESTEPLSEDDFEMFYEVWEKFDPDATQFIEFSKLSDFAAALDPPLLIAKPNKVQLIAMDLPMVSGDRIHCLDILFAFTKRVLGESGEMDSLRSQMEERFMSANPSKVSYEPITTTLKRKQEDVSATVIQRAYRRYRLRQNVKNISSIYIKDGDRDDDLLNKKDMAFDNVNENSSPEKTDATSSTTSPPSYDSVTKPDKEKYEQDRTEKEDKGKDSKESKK
# Kir2.1 = target: T2, Kir2.1 (Homo sapiens, UniProt P63252); test: Ion channel panel (IonWorks Barracuda): Kir2.1; format: cell-based; conditions: 100% = no change, <100% = inhibition
# T2 construct: host or cells: HEK293 or CHO
# In short: (§1)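 Peptides were tested in duplicate at final 20 μM and 200 nM, with concentration set by amino acid analysis, in HEPES-buffered saline. They were applied for at least 5 min to HEK293 or CHO cells transfected with each channel. Currents were expressed as % inhibition, 1-(Ipeptide/Icontrol)×100, or % activation, Ipeptide/Icontrol×100, against a channel-matched reference compound.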
# Kv1.2 = target: T3, Kv1.2 (Homo sapiens, UniProt P16389); test: cell-based; format: cell-based; conditions: 100% = no change, <100% = inhibition
# T3 construct: host or cells: HEK293 or CHO
# In short: as §1
# Kv1.3 = target: T4, Kv1.3 (Homo sapiens, UniProt P22001); test: cell-based; format: cell-based; conditions: 100% = no change, <100% = inhibition
# T4 construct: host or cells: HEK293 or CHO
# In short: as §1
# Kv1.1 = target: T5, Kv1.1 (Homo sapiens, UniProt Q09470); test: cell-based; format: cell-based; conditions: 100% = no change, <100% = inhibition
# T5 construct: host or cells: HEK293 or CHO
# In short: as §1
# TRPA1 = target: T6, TRPA1 (Homo sapiens, UniProt O75762); test: Ion channel panel (IonWorks Barracuda): TRPA1; format: cell-based; conditions: 100% = no change, <100% = inhibition
# T6 construct: host or cells: HEK293 or CHO
# In short: as §1
# 5HT3a = target: T7, 5HT3a (Homo sapiens, UniProt P46098); test: Ion channel panel (IonWorks Barracuda): 5HT3a; format: cell-based
# T7 construct: host or cells: HEK293 or CHO
# T7 sequence (P46098 whole entry, looked up): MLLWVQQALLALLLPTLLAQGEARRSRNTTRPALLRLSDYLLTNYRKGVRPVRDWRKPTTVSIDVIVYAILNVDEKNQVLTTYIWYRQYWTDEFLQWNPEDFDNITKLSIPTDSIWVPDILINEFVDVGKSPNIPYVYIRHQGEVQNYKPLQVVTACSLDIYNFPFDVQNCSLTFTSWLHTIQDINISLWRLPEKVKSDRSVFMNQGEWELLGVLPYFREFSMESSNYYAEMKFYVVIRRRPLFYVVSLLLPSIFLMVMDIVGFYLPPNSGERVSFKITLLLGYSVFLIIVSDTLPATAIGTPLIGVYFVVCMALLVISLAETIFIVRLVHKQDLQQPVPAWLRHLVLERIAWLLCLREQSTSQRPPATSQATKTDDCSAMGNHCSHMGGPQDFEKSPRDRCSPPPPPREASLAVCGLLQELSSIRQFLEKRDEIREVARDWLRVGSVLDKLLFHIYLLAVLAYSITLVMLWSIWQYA
# In short: as §1
# TRPV1 = target: T8, TRPV1 (Homo sapiens, UniProt Q8NER1); test: Ion channel panel (IonWorks Barracuda): TRPV1; format: cell-based; conditions: 100% = no change, <100% = inhibition
# T8 construct: host or cells: HEK293 or CHO
# T8 sequence (Q8NER1 whole entry): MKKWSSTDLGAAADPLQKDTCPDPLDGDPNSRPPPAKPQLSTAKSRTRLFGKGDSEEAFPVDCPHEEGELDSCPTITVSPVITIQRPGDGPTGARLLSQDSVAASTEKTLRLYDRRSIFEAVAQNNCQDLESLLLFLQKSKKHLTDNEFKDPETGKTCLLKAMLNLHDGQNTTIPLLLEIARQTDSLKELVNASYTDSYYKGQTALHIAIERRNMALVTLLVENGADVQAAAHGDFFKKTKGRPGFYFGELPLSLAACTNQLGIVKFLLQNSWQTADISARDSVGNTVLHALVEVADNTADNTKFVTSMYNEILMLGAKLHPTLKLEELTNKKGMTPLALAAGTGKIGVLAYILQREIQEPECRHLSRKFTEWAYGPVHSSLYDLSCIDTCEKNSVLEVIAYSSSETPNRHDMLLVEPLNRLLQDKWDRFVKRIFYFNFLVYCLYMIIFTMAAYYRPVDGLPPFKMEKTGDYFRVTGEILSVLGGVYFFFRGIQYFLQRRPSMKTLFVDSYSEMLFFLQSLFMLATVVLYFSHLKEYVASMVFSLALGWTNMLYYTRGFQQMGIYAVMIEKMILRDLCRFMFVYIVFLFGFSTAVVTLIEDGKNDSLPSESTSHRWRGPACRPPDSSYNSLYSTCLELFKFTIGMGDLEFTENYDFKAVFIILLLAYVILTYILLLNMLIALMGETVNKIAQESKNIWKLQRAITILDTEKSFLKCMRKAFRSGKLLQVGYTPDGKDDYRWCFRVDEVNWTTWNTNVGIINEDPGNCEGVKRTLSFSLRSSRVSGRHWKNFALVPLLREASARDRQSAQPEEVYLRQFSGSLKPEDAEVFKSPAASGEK
# In short: as §1
# Kv2.1 = target: T9, Kv2.1 (Homo sapiens, UniProt Q14721); test: cell-based; conditions: 100% = no change, <100% = inhibition
# T9 construct: host or cells: HEK293 or CHO
# In short: as §1
# Cav2.1 = target: T10, Cav2.1 (Homo sapiens, UniProt O00555); test: cell-based; conditions: 100% = no change, <100% = inhibition
# T10 construct: host or cells: HEK293 or CHO
# In short: as §1
# Cav2.2 = target: T11, Cav2.2 (Homo sapiens, UniProt Q00975); test: cell-based; conditions: 100% = no change, <100% = inhibition
# T11 construct: host or cells: HEK293 or CHO
# In short: as §1
# α4β2 = target: T12, α4β2 (Homo sapiens, UniProt P17787+P43681); test: Ion channel panel (IonWorks Barracuda): α4β2; format: cell-based; conditions: 100% = no change, <100% = inhibition
# T12 construct: host or cells: HEK293 or CHO
# In short: as §1
# NR2B = target: T13, NR2B (Homo sapiens, UniProt Q13224); test: Ion channel panel (IonWorks Barracuda): NR2B; format: cell-based; conditions: 100% = no change, <100% = inhibition
# T13 construct: host or cells: HEK293 or CHO
# In short: as §1
# α3β4 = target: T14, α3β4 (Homo sapiens, UniProt P30926+P32297); test: Ion channel panel (IonWorks Barracuda): α3β4; format: cell-based; conditions: 100% = no change, <100% = inhibition
# T14 construct: host or cells: HEK293 or CHO
# In short: as §1
# Nav1.5 = Nav1.5 (Homo sapiens, UniProt Q14524); test: in vitro; conditions: 100% = no change; for Activity of Nav1.5 with peptide, expressed as a percentage of the reference compound: peptide at 0.2 μM; for Activity of Nav1.5 with peptide (percentage of the reference compound): peptide at 20 μM
# Nav1.5, sequence (Q14524 whole entry): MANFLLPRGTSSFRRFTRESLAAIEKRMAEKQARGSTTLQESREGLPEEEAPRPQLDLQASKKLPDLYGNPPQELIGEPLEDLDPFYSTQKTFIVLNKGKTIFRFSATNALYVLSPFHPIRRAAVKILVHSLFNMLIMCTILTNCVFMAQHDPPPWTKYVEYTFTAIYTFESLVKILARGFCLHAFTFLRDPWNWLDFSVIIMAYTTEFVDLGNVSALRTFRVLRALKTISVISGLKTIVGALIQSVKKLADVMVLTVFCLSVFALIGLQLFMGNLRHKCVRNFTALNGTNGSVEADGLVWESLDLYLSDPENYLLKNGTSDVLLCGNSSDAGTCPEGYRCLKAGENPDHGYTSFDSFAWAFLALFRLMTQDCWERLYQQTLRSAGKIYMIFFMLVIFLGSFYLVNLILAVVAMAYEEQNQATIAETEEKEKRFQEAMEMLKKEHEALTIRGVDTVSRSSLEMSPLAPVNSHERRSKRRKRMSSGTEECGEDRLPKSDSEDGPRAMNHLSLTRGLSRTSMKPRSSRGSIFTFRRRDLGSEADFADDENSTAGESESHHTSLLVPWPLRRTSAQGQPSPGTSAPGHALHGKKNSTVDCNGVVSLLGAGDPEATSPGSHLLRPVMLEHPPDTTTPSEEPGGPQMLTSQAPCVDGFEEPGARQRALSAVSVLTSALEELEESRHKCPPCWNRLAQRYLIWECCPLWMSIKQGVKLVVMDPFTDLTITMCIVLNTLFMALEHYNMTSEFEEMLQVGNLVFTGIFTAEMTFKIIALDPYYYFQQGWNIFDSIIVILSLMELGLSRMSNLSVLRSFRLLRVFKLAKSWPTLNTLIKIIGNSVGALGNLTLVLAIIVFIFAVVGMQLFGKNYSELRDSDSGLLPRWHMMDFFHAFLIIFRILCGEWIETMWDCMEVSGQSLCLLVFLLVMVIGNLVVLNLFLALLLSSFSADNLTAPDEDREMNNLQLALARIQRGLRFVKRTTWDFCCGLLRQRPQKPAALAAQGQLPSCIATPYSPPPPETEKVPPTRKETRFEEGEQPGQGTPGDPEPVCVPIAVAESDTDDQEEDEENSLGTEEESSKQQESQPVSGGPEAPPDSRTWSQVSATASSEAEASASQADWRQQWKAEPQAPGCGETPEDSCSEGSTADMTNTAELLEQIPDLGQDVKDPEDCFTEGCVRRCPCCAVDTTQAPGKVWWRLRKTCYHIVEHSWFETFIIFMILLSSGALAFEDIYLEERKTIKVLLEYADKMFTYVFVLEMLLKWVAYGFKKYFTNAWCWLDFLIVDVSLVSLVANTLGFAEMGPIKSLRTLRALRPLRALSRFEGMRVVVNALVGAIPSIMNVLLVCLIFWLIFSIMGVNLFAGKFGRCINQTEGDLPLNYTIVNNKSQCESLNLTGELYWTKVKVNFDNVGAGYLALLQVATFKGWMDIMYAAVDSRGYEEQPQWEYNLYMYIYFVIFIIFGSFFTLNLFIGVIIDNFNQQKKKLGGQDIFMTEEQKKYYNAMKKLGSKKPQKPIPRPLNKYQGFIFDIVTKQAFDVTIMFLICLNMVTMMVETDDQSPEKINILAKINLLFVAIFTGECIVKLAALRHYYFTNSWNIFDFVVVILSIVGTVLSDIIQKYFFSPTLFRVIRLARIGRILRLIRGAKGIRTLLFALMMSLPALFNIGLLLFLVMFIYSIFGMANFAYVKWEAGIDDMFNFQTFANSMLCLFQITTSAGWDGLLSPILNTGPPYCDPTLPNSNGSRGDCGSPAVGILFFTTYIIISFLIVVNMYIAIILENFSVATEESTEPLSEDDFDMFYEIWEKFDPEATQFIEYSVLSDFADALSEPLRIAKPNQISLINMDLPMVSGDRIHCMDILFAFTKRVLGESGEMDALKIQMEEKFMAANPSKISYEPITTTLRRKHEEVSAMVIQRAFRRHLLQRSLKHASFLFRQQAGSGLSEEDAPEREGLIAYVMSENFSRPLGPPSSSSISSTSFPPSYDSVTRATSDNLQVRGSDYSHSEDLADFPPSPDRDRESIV
# In short: as §1
# hERG = hERG (Homo sapiens, UniProt Q12809); test: in vitro; conditions: 100% = no change, <100% = inhibition
# In short: as §1
# NR2A = target: T15, NR2A (Homo sapiens, UniProt Q12879); test: Ion channel panel (IonWorks Barracuda): NR2A; format: cell-based; conditions: 100% = no change, <100% = inhibition
# T15 construct: host or cells: HEK293 or CHO
# In short: as §1
# GABA = test: Ion channel panel (IonWorks Barracuda): GABA; format: cell-based; conditions: 100% = no change, <100% = inhibition
# In short: as §1
# [1] = first of two Nav1.7 columns (probably TP1)
# [2] = second of two Nav1.7 columns (probably TP2)
# [3] = first of two Nav1.5 columns (probably TP1)
# [4] = second of two Nav1.5 columns (probably TP2)
substance,measurement,setting,value
32 (GSQDKCKKVYENYPVSKCQLANQCNYDCKLDKHARSGECFYDEKRNLQCICDYCEY) [compound 32],"Activity of Nav1.7 with peptide, expressed as a percentage of the reference compound",Nav1.7; [1],96%
same,"Activity of Nav1.7 with peptide, expressed as a percentage of the reference compound",Nav1.7; [2],97%
same,Activity of Nav1.7 with peptide (percentage of the reference compound),Nav1.7; [1],87%
same,Activity of Nav1.7 with peptide (percentage of the reference compound),Nav1.7; [2],61%
same,"Activity of Kir2.1 with peptide, expressed as a percentage of the reference compound",Kir2.1; peptide at 0.2 μM,95%
same,Activity of Kir2.1 with peptide (percentage of the reference compound),Kir2.1; peptide at 20 μM,79%
same,"Activity of Kv1.2 with peptide, expressed as a percentage of the reference compound",Kv1.2; peptide at 0.2 μM,89%
same,Activity of Kv1.2 with peptide (percentage of the reference compound),Kv1.2; peptide at 20 μM,112%
same,"Activity of Kv1.3 with peptide, expressed as a percentage of the reference compound",Kv1.3; peptide at 0.2 μM,98%
same,Activity of Kv1.3 with peptide (percentage of the reference compound),Kv1.3; peptide at 20 μM,98%
same,"Activity of Kv1.1 with peptide, expressed as a percentage of the reference compound",Kv1.1; peptide at 0.2 μM,76%
same,Activity of Kv1.1 with peptide (percentage of the reference compound),Kv1.1; peptide at 20 μM,114%
same,"Activity of TRPA1 with peptide, expressed as a percentage of the reference compound",TRPA1; peptide at 0.2 μM,130%
same,Activity of TRPA1 with peptide (percentage of the reference compound),TRPA1; peptide at 20 μM,108%
same,Activity of 5HT3a with peptide (percentage of the reference compound),5HT3a,105%
same,"Activity of 5HT3a with peptide, expressed as a percentage of the reference compound",5HT3a,95%
same,"Activity of TRPV1 with peptide, expressed as a percentage of the reference compound",TRPV1; peptide at 0.2 μM,99%
same,Activity of TRPV1 with peptide (percentage of the reference compound),TRPV1; peptide at 20 μM,84%
same,"Activity of Kv2.1 with peptide, expressed as a percentage of the reference compound",Kv2.1; peptide at 0.2 μM,92%
same,Activity of Kv2.1 with peptide (percentage of the reference compound),Kv2.1; peptide at 20 μM,93%
same,"Activity of Cav2.1 with peptide, expressed as a percentage of the reference compound",Cav2.1; peptide at 0.2 μM,98%
same,Activity of Cav2.1 with peptide (percentage of the reference compound),Cav2.1; peptide at 20 μM,92%
same,"Activity of Cav2.2 with peptide, expressed as a percentage of the reference compound",Cav2.2; peptide at 0.2 μM,102%
same,Activity of Cav2.2 with peptide (percentage of the reference compound),Cav2.2; peptide at 20 μM,101%
same,"Activity of a4b2 with peptide, expressed as a percentage of the reference compound",α4β2; peptide at 0.2 μM,81%
same,Activity of a4b2 with peptide (percentage of the reference compound),α4β2; peptide at 20 μM,86%
same,"Activity of NR2B with peptide, expressed as a percentage of the reference compound",NR2B; peptide at 0.2 μM,76%
same,Activity of NR2B with peptide (percentage of the reference compound),NR2B; peptide at 20 μM,106%
same,"Activity of a3b4 with peptide, expressed as a percentage of the reference compound",α3β4; peptide at 0.2 μM,100%
same,Activity of a3b4 with peptide (percentage of the reference compound),α3β4; peptide at 20 μM,96%
same,"Activity of Nav1.5 with peptide, expressed as a percentage of the reference compound",Nav1.5; [3],108%
same,"Activity of Nav1.5 with peptide, expressed as a percentage of the reference compound",Nav1.5; [4],101%
same,Activity of Nav1.5 with peptide (percentage of the reference compound),Nav1.5; [3],90%
same,Activity of Nav1.5 with peptide (percentage of the reference compound),Nav1.5; [4],90%
same,"Activity of hERG with peptide, expressed as a percentage of the reference compound",hERG; peptide at 0.2 μM,90%
same,Activity of hERG with peptide (percentage of the reference compound),hERG; peptide at 20 μM,65%
same,"Activity of NR2A with peptide, expressed as a percentage of the reference compound",NR2A; peptide at 0.2 μM,95%
same,Activity of NR2A with peptide (percentage of the reference compound),NR2A; peptide at 20 μM,110%
same,"Activity of GABA with peptide, expressed as a percentage of the reference compound",GABA; peptide at 0.2 μM,98%
same,Activity of GABA with peptide (percentage of the reference compound),GABA; peptide at 20 μM,105%
